From US20220062148 come the findings set out here.

In series [1] the target is T1, Peptide sequence WGNRSPLE
T1 chain: WGNRSPLE

Series [2] deals with T2, Peptide sequence QAVRPNGM
T2 chain: QAVRPNGM

Series [3] has as its target T3, Peptide sequence FDNRVGKW
T3 chain: FDNRVGKW

For series [4], the target named is T4, Peptide sequence XIARQPWN
T4 chain: ARQPWN

For series [5], the target named is T5, Peptide sequence QGKKAPXX
T5 chain: QGKKAP

B1: Atlantic cod trypsin I (protein)
chain: IVGGYECTKHSQAHQVSLNSGYHFCGGSLVSKDWVVSAAHCYKSVLRVRLGEHHIRVNEGTEQYISSSSVIRHPNYSSYNINNDIMLIKLTKPATLNQYVHAVALPTECAADATMCTVSGWGNTMSSVADGDKLQCLSLPILSHADCANSYPGMITQSMFCAGYLEGGKDSCQGDSGGPVVCNGVLQGVVSWGYGCAERDHPGVYAKVCVLSGWVRDTMANY
Turning to B1, the Ion Precursor Intensities, 5′ incubation (multiplex substrate profiling, cleavage) in series [1], in series [2], in series [3], in series [4] and in series [5] was 0 each time. Moreover, the Ion Precursor Intensities, 15′ incubation (multiplex substrate profiling, cleavage) in series [1], in series [2], in series [3], in series [4] and in series [5] was 0 each time. Moreover, the Ion Precursor Intensities, 60′ incubation (multiplex substrate profiling, cleavage) in series [1] turned out to be 0; in series [2], 0; in series [3], 165000; in series [4], 189000; in series [5], 0.
